What all share (type): biochemical, Pseudomonas putida CBB5
The target of data set [1] is T1, cytochrome c reductase (Ccr) (Pseudomonas putida, UniProt H9N291).
T1 construct: 87 μM bovine cytochrome c (type Ill; Sigma), and 1-20 μg CBB5 protein (depending on purity); made in house; host or cells: column fractions of the natural strain Pseudomonas putida CBB5; not recombinant
The data set can be described thus: NAD(P)H:cytochrome c oxidoreductase activity. Here is the method: Enzyme Activity Assays. NADH:cytochrome c oxidoreductase (cytochrome c reductase, Ccr) activity was determined as described by Ueda et al. (1972). A typical 1-mL reaction contained 300 μM NADH, 87 μM bovine cytochrome c (type Ill; Sigma), and 1-20 μg CBB5 protein (depending on purity) in 50 mM KPi buffer. The activity was determined by monitoring the increase in absorbance at 550 nm due to reduction of […] cytochrome c at 30° C. An extinction coefficient of 21,000 M^−1 cm^−1 for reduced minus oxidized cytochrome c was used for quantitating the activity. One unit of activity was defined as one μmol of cytochrome c reduced per minute.

Substrate in data set [2]: Cn1c(=O)[nH]c2ncn(C)c2c1=O
In words: Methylxanthine N-demethylase activity assay with purified Ndm plus partially purified Ccr. The settings on record: other: saturating Ccr, 50 μM Fe2+, 30° C., 50 mM KPi pH 7.5. As for the experimental part: (§1) Methylxanthine N-demethylase activity assay contained, in 1-mL total volume, 0.5 mM methylxanthine, 1 mM NADH, 50 μM Fe(NH4)2(SO4)2, and an appropriate amount of Ndm (0.08-7.5 mg protein, depending on purity of the protein) in 50 mM KPi buffer. Approximately 4 U of partially purified Ccr was added to reaction mixture when assaying Ndm in Phenyl Sepharose and Q Sepharose eluant-fractions (Ccr was not added to the enzyme reaction mixture when assaying Ndm activity in DEAE Sepharose eluant-fractions because Ccr co-eluted with Ndm). The reaction mixture was incubated at 30° C. with 300 rpm shaking on an incubating microplate shaker (VWR). Periodically, a small aliquot was sampled from the reaction mixture and mixed with equal volume of acetonitrile for quantifying concentrations of methylxanthines and N-demethylated products by HPLC. One unit of N-demethylase activity was defined as the consumption of one μmole methylxanthine per minute. When Ndm was coupled with the reductase and ferredoxin components of naphthalene dioxygenase of Pseudomonas sp. strain 9816 (Haigler & Gibson, 1990a; Haigler & Gibson, 1990b), 30 and 100 μg of the respective proteins were used. Spinach ferredoxin reductase and ferredoxin were also substituted for Ccr as described by Subramanian et al. (1979).
(§2) Determination of Kinetic Parameters. Apparent kinetic parameters of Ndm were determined by measuring the initial rate of disappearance (vo) of paraxanthine or 7-methylxanthine in 50 mM KPi buffer (pH 7.5) at 30° C. The paraxanthine and 7-methylxanthine concentrations ([S]) used in these experiments were from 20 to 500 μM. Substrates were incubated with Ndm and Ccr under standard conditions for 15 minutes. At 1, 5, 10, and 15 minutes, samples were removed from the reaction mixtures to quantitate substrate concentrations by HPLC. Plots of substrate concentrations against time were used to determine the initial rates of disappearance of substrates which were linear over 15 minutes. The apparent kinetic parameters were determined from Michaelis-Menten plots of Vo against [S] fitted with the equation
(§3) Determination of Oxygen Requirement. Oxygen consumption by Ndm during N-demethylation of paraxanthine was determined in a closed reaction vessel equipped with a Clarke-type oxygen electrode (Digitial Modell 0, Rank Brothers Ltd., Cambridge, England). […] After 13 minutes, a 100-μL aliquot was withdrawn from the reaction, immediately mixed with equal volume of acetonitrile to stop the enzyme reaction, and analyzed for N-demethylation product by HPLC. Background oxygen consumption, possibly due to NADH oxidase enzyme activity in the partially purified Ccr, was quantitated in control reactions containing all reaction components except paraxanthine. […]

Substrate in data set [3]: Cn1cnc2[nH]c(=O)[nH]c(=O)c21
Described as above. The settings on record: other: saturating Ccr, 50 μM Fe2+, 30° C., 50 mM KPi pH 7.5. As for the experimental part: as §1, §2, §3

Substrate in data set [4]: Cn1cnc2c1c(=O)[nH]c(=O)n2C
In words: Methylxanthine N-demethylase assay and kinetics, NdmB-His6 with His6-NdmD. The following applies: other: NdmB-His6, 30° C., pH 7.5, ∞ where no activity. Here is the method:
(§4) Methylxanthine N-demethylase activity assay contained, in 1-ml total volume, 0.5 mM methylxanthine, 1 mM NADH, 50 μM Fe(NH4)2(SO4)2, and an appropriate amount of NdmA-His6 or NdmB-His6 (7.4 μg-2.5 mg protein depending on substrate specificity) in 50 mM KPi buffer (pH 7.5). Approximately 4 U of partially purified reductase, prepared as described previously (Summers et al., 2011) or 59 U of purified His6-NdmD was added to reaction mixture. Catalase from bovine liver (4,000 U) was also added to reactions containing His6-NdmD. The reaction mixture was incubated at 30° C. with 300 rpm shaking on an incubating microplate shaker (VWR, Radnor, Pa.). Periodically, a small aliquot was sampled from the reaction mixture and mixed with equal volume of acetonitrile for quantifying concentrations of methylxanthines and N-demethylated products by HPLC. One unit of N-demethylase activity was defined as the consumption of one […] methylxanthine per minute.
(§5) Apparent kinetic parameters of NdmA-His6 and NdmB-His6 were determined by measuring the initial rate of disappearance (vo) of methylxanthines in 50 mM KPi buffer (pH 7.5) at 30° C. The initial substrate concentrations (ESI) used in these experiments were from 25 to 500 μM. Substrates were incubated with His6-NdmD plus either NdmA-His6 or NdmB-His6 under standard conditions for 15 minutes. At 1, 5, 10, and 15 minutes, samples were removed from the reaction mixtures to quantitate substrate concentrations by HPLC. Plots of substrate concentrations against time were used to determine the initial rates of disappearance of substrates which were linear over 15 minutes. The apparent kinetic parameters were determined from Michaelis-Menten plots of vo against [S] fitted with the equation

Substrate in data set [5]: Cn1c(=O)c2c(ncn2C)n(C)c1=O
The description is as above. The following applies: other: NdmB-His6, 30° C., pH 7.5, ∞ where no activity. As for the experimental part:
as §4, §5

Substrate in data set [6]: Cn1c(=O)[nH]c(=O)c2[nH]cnc21
The description is as above. The following applies: other: NdmB-His6, 30° C., pH 7.5, ∞ where no activity. Here is the method:
as §4, §5

Substrate in data set [7]: Cn1c(=O)c2[nH]cnc2n(C)c1=O
The data set is described as above. The following applies: other: NdmB-His6, 30° C., pH 7.5, ∞ where no activity. As for the experimental part: as §4, §5

Substrate in data set [8]: Cn1c(=O)[nH]c2ncn(C)c2c1=O
In words: Methylxanthine N-demethylase assay and kinetics, NdmA-His6 with His6-NdmD. The following applies: other: NdmA-His6, 30° C., pH 7.5, ∞ where no activity. As for the experimental part: as §4, §5

Substrate in data set [9]: Cn1c(=O)c2c(ncn2C)n(C)c1=O
The data set is described as above. The following applies: other: NdmA-His6, 30° C., pH 7.5, ∞ where no activity. As for the experimental part:
as §4, §5

Substrate in data set [10]: Cn1c(=O)[nH]c2nc[nH]c2c1=O
The description is as above. The settings on record: other: NdmA-His6, 30° C., pH 7.5, ∞ where no activity. As for the experimental part:
as §4, §5

Substrate in data set [11]: Cn1c(=O)c2[nH]cnc2n(C)c1=O
The data set is described as above. The following applies: other: NdmA-His6, 30° C., pH 7.5, ∞ where no activity. Here is the method:
as §4, §5

T1 sequence (H9N291 whole entry): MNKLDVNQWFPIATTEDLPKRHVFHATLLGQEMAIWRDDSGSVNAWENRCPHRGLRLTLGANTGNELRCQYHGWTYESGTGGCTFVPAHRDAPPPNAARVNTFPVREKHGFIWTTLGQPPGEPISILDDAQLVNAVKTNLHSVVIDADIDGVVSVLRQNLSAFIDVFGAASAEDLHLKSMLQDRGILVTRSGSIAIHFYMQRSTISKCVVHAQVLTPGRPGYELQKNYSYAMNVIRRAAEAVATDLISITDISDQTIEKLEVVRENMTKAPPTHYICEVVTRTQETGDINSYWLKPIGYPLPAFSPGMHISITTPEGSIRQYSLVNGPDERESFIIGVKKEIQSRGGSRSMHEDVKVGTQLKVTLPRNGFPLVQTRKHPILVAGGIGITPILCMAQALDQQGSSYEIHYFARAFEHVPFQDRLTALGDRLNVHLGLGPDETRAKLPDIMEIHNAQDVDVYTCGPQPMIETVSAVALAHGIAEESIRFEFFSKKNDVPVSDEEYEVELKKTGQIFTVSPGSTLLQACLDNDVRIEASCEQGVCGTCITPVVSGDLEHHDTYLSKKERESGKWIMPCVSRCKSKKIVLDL

On to `NC(=O)C1=CN([C@@H]2O[C@H](COP(=O)(O)OP(=O)(O)OC[C@H]3O[C@@H](n4cnc5c(N)ncnc54)[C@H](OP(=O)(O)O)[C@@H]3O)[C@@H](O)[C@H]2O)C=CC1` [NADPH], for which the “Ccr activity relative to that with NADH” value in data set [1] came to 22%.

B1: N-demethylase (Ndm: NdmA and NdmB subunits) (Pseudomonas putida) (protein)
chain 1: MEQAIINDEREYLRHFWHPVCTVTELEKAHPSSLGPLAVKLLNEQLVVAKLGDEYVAMRDRCAHRSAKLSLGTVSGNRLQCPYHGWQYDTHGACQLVPACPNSPIPNKAKVDRFDCEERYGLIWIRLDSSFDCTEIPYFSAANDPRLRIVIQEPYWWDATAERRWENFTDFSHFAFIHPGTLFDPNNAEPPIVPMDRFNGQFRFVYDTPEDMAVPNQAPIGSFSYTCSMPFAINLEVSKYSSSSLHVLFNVSCPVDSHTTKNFLIFAREQSDDSDYLHIAFNDLVFAEDKPVIESQWPKDAPADEVSVVADKVSIQYRKWLRELKEAHKEGSQAFRSALLDPVIESDRSYI
chain 2: MKEQLKPLLEDKTYLRHFWHPVCTLNEFERANASGHGPMGVTLLGEKLVLARLNSKIIAAADRCAHRSAQLSIGRVCSNAGKDYLECPYHGWRYDEAGACQLIPACPDKSISPRAKISSFDCEVKYDIVWVRLDNSFDCTQIPYLSDFDNPDMQVIVADSYIWETVAERRWENFTDFSHFAFVHPGTLYDPFFASHPTVYVNRVDGELQFKLAPPREMKGIPPEAPMGDFTYRCTMPYSVNLEIKLWKDDSRFVLWTTASPVDNKSCRNFMIIVREKDNQPDHMHLAFQKRVLDEDQPVIESQWPLEIQTSEVSVATDKISVQFRKWHKELSLSAVEGREAFRDSVLTNVIEEEQ
notes: lane 3, natural Ndm purified from P. putida CBB5; made in house; host or cells: purified from the natural strain Pseudomonas putida CBB5 (DEAE, Phenyl and Q Sepharose); not recombinant
As usually defined, the Km is the concentration of substrate that gives half-maximal velocity. Broadly, the kcat is the maximal rate divided by the concentration of active sites. Take B1: in [2], the Km amounted to 50.4 ± 6.8 µM and the kcat was found to be 0.27 ± 0.01 s⁻¹. In [3], the Km was 63.8 ± 7.5 µM and the kcat was 1.58 ± 0.05 s⁻¹.

B2: NdmB-His6 (Pseudomonas putida) (protein)
chain: B1 chain 2
notes: made in house; host or cells: E. coli BL21(DE3)
The term kcat/Km denotes the second-order rate constant that governs catalysis at low substrate concentration. For the molecule B2, the Km in [4] was 25.3 ± 5.1 µM; in data set [5], 41.7 µM; in [6], 22.4 ± 5.2 µM; in data set [7], 169.0 µM. In addition, the kcat in data set [4] was found to be 0.772 ± 0.0317 s⁻¹; in data set [5], 0.00383 s⁻¹; in data set [6] it was 0.528 ± 0.025 s⁻¹. The kcat/Km in data set [4] turned out to be 30000 M⁻¹ s⁻¹; in data set [5], 100 M⁻¹ s⁻¹; in data set [6], 23300 M⁻¹ s⁻¹.

B3: NdmA-His6 (Pseudomonas putida) (protein)
chain: B1 chain 1
notes: as for B2
B3: the Km in [8] turned out to be 52.9 µM; in [9] it was 37.6 µM; in data set [10], 266.6 µM; in [11], 9.1 µM. Also, the kcat in data set [8] amounted to 2.21 s⁻¹; in data set [9], 3.21 s⁻¹; in [10], 0.26 s⁻¹; in [11], 1.38 s⁻¹. For the same molecule, the kcat/Km in data set [8] was 41700 M⁻¹ s⁻¹; in data set [9] it was 85000 M⁻¹ s⁻¹; in [10] it was 1000 M⁻¹ s⁻¹; in data set [11], 152000 M⁻¹ s⁻¹.
